Laboratory results reported in patent US20260234247A1 (published 2026).
Each block holds one binder with its values, some of them ahead of it.

Legend:
[1] = target: T1, human LILRA1 (human, UniProt O75019 17-461, limits assumed); test: ELISA, OD450, antibody at 200 nM; + = 2-fold over ISO
T1 construct: bought protein coated for ELISA; also called hLILRA1
T1 sequence (O75019 17-461 limits assumed): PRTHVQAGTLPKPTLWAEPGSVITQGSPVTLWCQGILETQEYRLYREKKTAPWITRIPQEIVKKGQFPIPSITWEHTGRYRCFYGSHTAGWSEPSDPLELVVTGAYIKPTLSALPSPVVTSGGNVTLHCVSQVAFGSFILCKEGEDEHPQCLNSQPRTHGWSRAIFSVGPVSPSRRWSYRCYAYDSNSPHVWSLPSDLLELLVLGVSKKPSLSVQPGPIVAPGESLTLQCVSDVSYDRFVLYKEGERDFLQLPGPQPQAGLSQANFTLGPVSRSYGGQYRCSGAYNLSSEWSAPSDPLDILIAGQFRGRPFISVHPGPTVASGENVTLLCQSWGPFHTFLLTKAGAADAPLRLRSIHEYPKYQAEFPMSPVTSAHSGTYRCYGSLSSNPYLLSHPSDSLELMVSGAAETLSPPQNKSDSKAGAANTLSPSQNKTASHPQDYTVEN
Description: (§1) To further confirm binding affinity, selected clones were assayed in ELISA or FACS in a range of testing concentrations.

[2] = target: T2, human LILRA3 (human, UniProt Q8N6C8 24-439); test: as above
T2 construct: bought protein coated for ELISA; also called hLILRA3
T2 sequence (Q8N6C8 24-439 limits assumed): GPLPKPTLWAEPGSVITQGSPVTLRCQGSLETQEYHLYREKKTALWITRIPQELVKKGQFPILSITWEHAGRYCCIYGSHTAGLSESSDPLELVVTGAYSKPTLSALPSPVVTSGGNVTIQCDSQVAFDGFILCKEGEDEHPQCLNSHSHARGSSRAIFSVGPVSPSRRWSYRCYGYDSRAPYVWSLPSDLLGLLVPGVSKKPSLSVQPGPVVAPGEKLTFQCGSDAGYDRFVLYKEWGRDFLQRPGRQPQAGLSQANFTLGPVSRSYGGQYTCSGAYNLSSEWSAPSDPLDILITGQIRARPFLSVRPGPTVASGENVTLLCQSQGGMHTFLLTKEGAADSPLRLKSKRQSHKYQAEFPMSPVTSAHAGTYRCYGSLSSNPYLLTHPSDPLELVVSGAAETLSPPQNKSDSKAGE
Description: as §1

[3] = target: T3, human LILRA4 (human, UniProt P59901 24-446); test: as above
T3 construct: bought protein coated for ELISA; also called hLILRA4
T3 sequence (P59901 24-446 limits assumed): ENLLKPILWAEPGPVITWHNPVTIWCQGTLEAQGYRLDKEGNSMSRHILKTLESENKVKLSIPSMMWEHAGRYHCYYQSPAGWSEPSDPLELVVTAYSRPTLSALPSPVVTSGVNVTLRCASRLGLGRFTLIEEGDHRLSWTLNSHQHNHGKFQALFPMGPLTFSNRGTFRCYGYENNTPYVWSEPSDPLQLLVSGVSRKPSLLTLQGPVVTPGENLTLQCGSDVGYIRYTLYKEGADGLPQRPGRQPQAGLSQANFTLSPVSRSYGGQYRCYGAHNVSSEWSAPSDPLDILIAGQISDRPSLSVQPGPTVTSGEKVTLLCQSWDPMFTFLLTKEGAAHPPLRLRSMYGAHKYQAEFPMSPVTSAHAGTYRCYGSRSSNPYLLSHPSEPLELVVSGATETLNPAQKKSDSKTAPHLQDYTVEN
Description: as §1

[4] = target: T4, human LILRB1 Variant 2 (human, UniProt Q8NHL6 24-458, limits assumed); test: ELISA (FIG. 12B)
T4 construct: protein bought from Kactusbio, LLC (Cat: LIL-HM2V1 and LIL-HM2V2 for Variant 2 and 3)
T4 sequence (Q8NHL6 other isoform, or with tags, fused parts or gaps mutant limits assumed): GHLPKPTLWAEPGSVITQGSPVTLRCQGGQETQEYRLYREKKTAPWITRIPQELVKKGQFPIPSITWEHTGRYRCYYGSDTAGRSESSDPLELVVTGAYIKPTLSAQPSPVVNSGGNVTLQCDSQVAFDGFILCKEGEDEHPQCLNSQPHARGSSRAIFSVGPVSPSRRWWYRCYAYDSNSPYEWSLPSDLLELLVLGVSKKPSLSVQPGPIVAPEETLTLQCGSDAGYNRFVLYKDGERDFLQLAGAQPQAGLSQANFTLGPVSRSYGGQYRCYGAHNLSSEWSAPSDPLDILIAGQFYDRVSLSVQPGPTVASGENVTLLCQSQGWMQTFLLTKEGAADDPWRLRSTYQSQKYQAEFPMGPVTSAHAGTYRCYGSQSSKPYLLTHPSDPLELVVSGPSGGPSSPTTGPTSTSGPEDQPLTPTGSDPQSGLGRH

[5] = target: T5, human LILRB1 Variant 3 (human, UniProt Q8NHL6 24-458, limits assumed); test: ELISA (FIG. 12C)
T5 construct: protein bought from Kactusbio, LLC
T5 sequence (Q8NHL6 other isoform, or with tags, fused parts or gaps mutant limits assumed): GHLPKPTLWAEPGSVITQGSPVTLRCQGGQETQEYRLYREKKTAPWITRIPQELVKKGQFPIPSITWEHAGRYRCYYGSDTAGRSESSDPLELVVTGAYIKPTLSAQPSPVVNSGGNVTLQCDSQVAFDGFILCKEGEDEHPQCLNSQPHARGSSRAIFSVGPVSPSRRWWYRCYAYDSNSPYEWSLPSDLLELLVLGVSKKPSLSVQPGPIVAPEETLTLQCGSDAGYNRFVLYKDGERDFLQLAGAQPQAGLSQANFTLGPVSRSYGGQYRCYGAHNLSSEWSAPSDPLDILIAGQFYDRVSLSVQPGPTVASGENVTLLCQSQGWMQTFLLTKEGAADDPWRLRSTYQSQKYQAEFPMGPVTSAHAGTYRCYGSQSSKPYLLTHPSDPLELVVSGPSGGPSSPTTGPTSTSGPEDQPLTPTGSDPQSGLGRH

[6] = target: T6, human LILRA2 (human, UniProt Q8N149 24-449); test: ELISA, OD450, antibody at 200 nM; + = 2-fold over ISO
T6 construct: bought protein coated for ELISA; also called hLILRA2
T6 sequence (Q8N149 24-449 limits assumed): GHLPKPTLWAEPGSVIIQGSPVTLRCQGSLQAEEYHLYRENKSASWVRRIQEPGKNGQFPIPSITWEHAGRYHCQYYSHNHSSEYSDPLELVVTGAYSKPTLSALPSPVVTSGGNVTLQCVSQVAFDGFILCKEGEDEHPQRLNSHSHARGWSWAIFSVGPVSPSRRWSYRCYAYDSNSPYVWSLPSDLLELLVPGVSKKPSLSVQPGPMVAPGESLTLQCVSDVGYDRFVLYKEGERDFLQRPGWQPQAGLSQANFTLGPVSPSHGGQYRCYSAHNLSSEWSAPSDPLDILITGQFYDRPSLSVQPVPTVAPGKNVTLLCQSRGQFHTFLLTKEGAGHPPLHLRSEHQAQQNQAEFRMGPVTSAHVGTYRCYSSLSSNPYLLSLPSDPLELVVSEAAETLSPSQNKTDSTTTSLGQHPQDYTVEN
Description: as §1

[7] = target: T7, Biotinylated LILRB1 (UniProt Q8NHL6 24-458, limits assumed, biotinylated (sites not given)); test: epitope binning ELISA, coated 1 ug/ml; competitor hz73D1.v1 at 20 ug/ml
T7 sequence (Q8NHL6 24-458 limits assumed): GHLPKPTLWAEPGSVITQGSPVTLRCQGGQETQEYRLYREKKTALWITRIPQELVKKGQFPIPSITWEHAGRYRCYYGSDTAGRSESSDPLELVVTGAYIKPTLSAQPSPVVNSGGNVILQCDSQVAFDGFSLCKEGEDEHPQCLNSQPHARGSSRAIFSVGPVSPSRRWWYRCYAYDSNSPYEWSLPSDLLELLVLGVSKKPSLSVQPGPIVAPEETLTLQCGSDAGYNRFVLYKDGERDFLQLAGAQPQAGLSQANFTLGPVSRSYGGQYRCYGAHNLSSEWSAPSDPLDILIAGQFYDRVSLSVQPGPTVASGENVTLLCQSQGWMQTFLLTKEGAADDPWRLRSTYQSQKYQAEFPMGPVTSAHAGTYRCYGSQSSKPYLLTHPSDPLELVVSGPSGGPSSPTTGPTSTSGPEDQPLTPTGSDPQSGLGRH

[8] = target: T7, Biotinylated LILRB1; test: epitope binning ELISA, coated 1 ug/ml; competitor LK-RB1-47 at 20 ug/ml
Description: (§2) Binding epitope of a subset of anti-LILRB1 and anti-LILRB2 antibodies was analyzed by epitope binning ELISA. Briefly, a panel of testing antibodies were coated onto ELISA plate. 50 ul/well Biotinylated LILRB1 or LILRB2 and 50 ul/well of competing antibodies were added to the coated plate and incubated at 37° C. for 1 hour. After Streptavidin-HRP (1:5000) incubation and TMB development, the plates were read at 450 nm using Molecular device spectra max plus384.

[9] = target: T7, Biotinylated LILRB1; test: epitope binning ELISA, coated 1 ug/ml; competitor 15G8 at 20 ug/ml
[10] = target: T7, Biotinylated LILRB1; test: epitope binning ELISA, coated 1 ug/ml; competitor LK-RB1-33 at 20 ug/ml
Description: as §2

[11] = target: T7, Biotinylated LILRB1; test: epitope binning ELISA, coated 1 ug/ml; competitor LK-RB1-16 at 20 ug/ml
Description: as §2

[12] = target: T7, Biotinylated LILRB1; test: epitope binning ELISA, coated 1 ug/ml; competitor LK-RB1-12 at 20 ug/ml
[13] = target: T8, human LILRB1 (human, UniProt Q8NHL6 24-458, limits assumed); test: Octet off-rate ranking;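 also: antibody dissociation rate constants against cynomolgus LILRB2 plus human LILRB1, LILRB2, LILRA1 and LILRA2, measured on an Octet instrument to rank binding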
T8 construct: also called hLILRB1
T8 sequence (Q8NHL6 24-458 limits assumed): as above
Excerpt: (§3) Binding affinity of anti-LILRB1 and anti-LILRB2 antibodies against human LILRB1, LILRB2, LILRA1, LILRA2 and cynomolgus LILRB2 was ranked by measuring dissociation rate constant (Kdis) using the Octet system.

[14] = target: T9, human LILRA1 (human, UniProt O75019 17-461, limits assumed); test: Octet off-rate ranking;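 also: antibody dissociation rate constants against cynomolgus LILRB2 plus human LILRB1, LILRB2, LILRA1 and LILRA2, measured on an Octet instrument to rank binding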
T9 construct: also called hLILRA1
T9 sequence (O75019 17-461 limits assumed): as the sequence (O75019 17-461 limits assumed) above
Excerpt: as §3

[15] = target: T7, Biotinylated LILRB1; test: epitope binning ELISA, coated 1 ug/ml; competitor LK-RB1-9 at 20 ug/ml
Description: as §2

[16] = target: T7, Biotinylated LILRB1; test: epitope binning ELISA, coated 1 ug/ml; competitor LK-RB1-31 at 20 ug/ml
[17] = target: T10, human LILRA3 (human, UniProt Q8N6C8 24-439); test: ELISA, OD450, antibody at 200 nM; + = 2-fold over ISO; remark: listed apart in the source
T10 construct: bought protein coated for ELISA; also called hLILRA3
T10 sequence (Q8N6C8 24-439 limits assumed): as the sequence (Q8N6C8 24-439 limits assumed) above
Description: as §1

B3: LK-RB1-16.h3 (antibody, human IgG4, kappa, V domains shown)
VH: QVQLQESGPGLVKPSETLSLTCTVSGFSLISNAISWIRQPPGKGLEWLGVIWGDGNTIYHSALRSRLTISKDTSKNQVFLKLSSVTAADTAVYYCAKANWDGYYFDYWGQGTTVTVSS
VL: DIQMTQSPSTLSASVGDRVTITCHASQSVDFWLNWYQQKPGKAPKLLISKASNLHTGVPSRFSGSGSGTEFTLTISSLQPDDFATYYCQQGQSYPLTFGQGTKLEIKR
notes: humanized LK-RB1-16
binding result [4]: binds
binding result [5]: binds

B4: LK-RB1-13 (antibody, human IgG4 S228P, kappa, V domains shown)
VH: QVTLKESGPGIVKPSQTLSLTCSFSGFSLSISGTGIGWIRQPSGKGLEWLAHIWWDDDKYYNPSLKSQVTISKDTSTKQVFLNITSVDTADTATYYCTRTELGRGDFWGQGTSVTVSS
VL: DILLTQSPAILSVSPGDRVSFSCRASQSTGTNIHWYQRRTNGSPRLLIKYGSESISGIPSRFSGSGTGTDFTLTINSVESEDIADYYCQQSYSWPYTFGGGTKLEIKR
notes: anti-LILRB1 antibody
binding result [6]: binds

B5: LK-RB1-15 (antibody, human IgG4 S228P, kappa, V domains shown)
VH: QVTLKESGPGIVKPSQTLSLTCSFSGFSLSISGTGIGWIRQPSGKGLEWLAHIWWDDDKYYNPSLKSQVTISKDTSTKQVFLNITSVDTADTATYYCTRTELGRGDFWGQGTSVTVSS
VL: DILLTQSPAILSVSPGDRVSFSCRASQSIGTNIHWYQRRTNGSPRLLIKYGSESISGIPSRFSGSGTGTDFTLTINSVESEDIADYYCQQSYSWPYTFGGGTKLEIKR
notes: anti-LILRB1 antibody
binding result [1]: binds
binding result [2]: binds

B6: hz73D1.v1 (antibody, human IgG4 S228P, kappa, V domains shown)
VH: QVQLVQSGAEVKKPGASVKVSCKASGYTFTDYYINWVRQAPGQGLEWMGNVNPNDGGTTYNQKFKGRVTMTTDTSTSTAYMELRSLRSDDTAVYYCARREIYFYGTIYYYAMDYWGQGTLVTVSS
VL: DIQLTQSPSFLSASVGDRVTITCRASESVDYYGNSFMYWYQQKPGKAPKLLIYFASNLESGVPSRFSGSGSGTEFTLTISSLQPEDFATYYCQQNNEDPWTFGGGTKVEIKR
Inhibition % [7]: 31.4%
Inhibition % [8]: 46.9%
Inhibition % [9]: -3.83%
Inhibition % [10]: 23.5%
Inhibition % [11]: 61.2%
Inhibition % [12]: 82.8%
koff [13]: 5.18e-05 s⁻¹
koff [14]: 7.52e-06 s⁻¹
Inhibition % [15]: 57.4%
Inhibition % [16]: 41.6%

B7: LK-RB1-45 (antibody, human IgG4 S228P, kappa, V domains shown)
VH: QVQLQQSGTELARPGASVKLSCKASGYTFTNFWMHWIKQRPGQGLEWIGYVNPTSDYTKYNQKFKDKATLTADKSSSTAYMQLNSLTYEDSAVYYCTRSSLYDTNYVFDSWGQGTTLTVSS
VL: DILLTQSPAILSVSPGERVSFSCRASQSIGRSIHWYQQRTNGSPRLLIKYASESISGIPSRFSGGGSGTDFTLSISNVESEDIADYYCQQSNNWPFTFGSGTKLEIKR
notes: anti-LILRB1 clone from mouse hybridoma
binding result [17]: binds

Other lines, results leading:

binding result [1]: binds
binding result [2]: binds
B1: LK-RB1-11 (antibody, human IgG4 S228P, kappa, V domains shown)
VH: QVTLKESGPGILQPSQTLSLTCSFSGFSLKTSGMSVGWIRQPSGKGLEWLAHIWWNDDKYYNPVLKGRLTISKDTSNNLVFLKIASVVSTDTATYYCVRYGNSHGYWYFDVWGTGTTVTVSS
VL: NIVLTQSPASLAVSLGQRATISCRASESVDSYGNNFIHWYQQKPGQPPKVLIYYASNLEAGVPARFSGSGSRTDFTLTIDPVEAEDAATYYCQQNNEDPYTFGGGTKLEIER
notes: anti-LILRB1 antibody

binding result [3]: binds
B2: LK-RB1-2 (antibody, human IgG4 S228P, kappa, V domains shown)
VH: QIQLVQSGPELKKPGETVKISCKASGYTFTTYGVSWVKQAPGKGLKWMGWINTYSGVSTYSDDFKGRFAFSLETSASTAYLQIINLKNEDAATYFCSRRRRTYDGYLSFDYWGQGTTLTVSS
VL: DIQMTQSPGSLSASVGETVTITCGASENIYGALNWFQRKPGKSPQLLIYGATNLADGMSSRFSGSGSGRQYSLQISSLRPDDVATYYCQNVLTTPWTFGGGTKVEIKR
notes: anti-LILRB1 antibody

binding result [4]: binds
binding result [5]: binds
B8: LK-RB1-9.h1 (antibody, human IgG4, kappa, V domains shown)
VH: QVQLVQSGSELKKPGASVKVSCKASGYTFTTYGMSWVRQAPGQGLEWMGWINTYSGVPTYADDFKGRFVFSLDTSVSTAYLQISSLKAEDTAVYYCARRRRTYHGYLSFDYWGQGTTVTVSS
VL: DIQMTQSPSSLSASVGDRVTITCETSENIYGALNWYQQKPGKAPKLLIYGATNLAEGVPSRFSGSGSGTDFTFTISSLQPEDIATYYCQNVLNTPWTFGGGTKLEIKR
notes: humanized LK-RB1-9
